Values quoted from earlier work, collected in article PMC10536416.
Like-named read-outs stand apart in the source and are kept apart here.

Legend:
[1] = molecular target: Amyloid beta 1-42 Abeta 1-42 (Homo sapiens) (UniProt P05067)
[2] = molecular target: Amyloid beta 1-42 Abeta 1-42 (Homo sapiens) (UniProt P05067); remark: listed apart in the source

| Kd [1] [nM] | Kd [2] [nM] | Substance |
| --- | --- | --- |
| 266 | – | Amyloid beta 1-40 Abeta 1-40 (from UniProt P05067) |
| – | 202 | Amyloid beta 1-40 on dextran-coated iron oxide nanoparticles Abeta 1-40 (from UniProt P05067) |
